In the supplement of paper PMC12764529:
± gives the half width of the 95% confidence interval.

Columns and labels:
[1] = folding stability dG unfold from chymotrypsin proteolysis; higher = more stable
Outline: (§1)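 Sequencing followed digestion of designed mini-proteins with trypsin and chymotrypsin, each at 11 concentrations in threefold dilutions together with a no-protease condition. The mini-proteins were under 80 residues, had no cysteine, sat in a PA-tagged cDNA display construct, and were kept only if AlphaFold2 dimer inter-PAE was above 15. From the counts, Bayesian fitting gave K50, and unfolding free energy was derived against a sequence-predicted unfolded-state K50 and a shared folded-state K50, per protease or combined.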

[2] = folding stability dG unfold (combined trypsin and chymotrypsin); higher = more stable
Outline: as §1

[3] = folding stability dG unfold from trypsin proteolysis; higher = more stable
Outline: as §1

Sequence | folding stability dG unfold [1] | folding stability dG unfold [2] | folding stability dG unfold [3]
SAMIKVVLPGAKLEKVEVFPDKTVKAVFVAKDHLVEIYFDPETGKALIRVYDGEKEYEFVLDVHPDDVISAG [r14_218_TrMRF] | 4.8 ± 0.25 kcal/mol | 4.33 ± 0.4 kcal/mol | 3.47 ± 0.31 kcal/mol
SAGGSAGGRIEVDPEGATIKYEHNPNMMQIEIKYPGKKVQIMIPPDFMKQNPDMPIKDLVEWILSAGGSAGG [r6_369_TrROS] | 0.94 ± 0.089 kcal/mol | 1.11 ± 0.23 kcal/mol | 1.09 ± 0.081 kcal/mol
SAGGSAGGSPLPYLTEDGEVQVVVRIDNSTGTTTVTLTGPDGKLLKTFSVSTDGPAFVVVRAGSAGGSAGGS [r12_960_TrMRF] | 1.92 ± 0.028 kcal/mol | 1.72 ± 0.064 kcal/mol | 1.34 ± 0.034 kcal/mol
SAGGSAGGSAGEPEYVRVRIRVRRRVRNKETGKWEEKEVELTLVFPSKEEALKALEELGLSAGGSAGGSAGG [r11_984_TrROS_Hall] | 4.049 ± 0.037 kcal/mol | 4.02 ± 0.051 kcal/mol | 3.99 ± 0.083 kcal/mol
SAGGSADDVKIKVEYERNPENGYGQITVEVEDPDGKDLKVEIMFPNMTPEEMEKQAKDIAKEIAKKSAGGSA [r15_526_TrROS] | 1.26 ± 0.19 kcal/mol | 0.719 ± 0.23 kcal/mol | -0.526 ± 0.21 kcal/mol
SKTVVVEINGYLIVVEEKKLENGETYYTVKIVNKKTKKVIEVKAKSKEEAEKAVLEALRKLFPDEELKKLSA [r9_749_TrROS_Hall] | 2.45 ± 0.075 kcal/mol | 2.51 ± 0.35 kcal/mol | 3.05 ± 0.15 kcal/mol
SAGGSAKITIEKVDDQYRITVTVPVYDENGNKVPLTFDFVYPSDDPDAFLDDVIRRIRELNPDLEKSAGGSA [r15_1050_TrMRF] | 3.01 ± 0.084 kcal/mol | 2.77 ± 0.1 kcal/mol | 2.3 ± 0.073 kcal/mol
SANTRSIPFPGSADDIVDEIKNLIDANPDVKIRIQPMDGEEYEIDIEGIEKIKVERMPDGWYMITVELPSAG [r14_807_TrROS] | 1.63 ± 0.13 kcal/mol | 1.16 ± 0.21 kcal/mol | 0.283 ± 0.33 kcal/mol
SAGGSKWIPVSIWFPKGMTPEKVEEIARELVEAGYRIENIEVEREPDPNGREWYRVDITFRPPGDLSAGGSA [r2_442_TrROS] | 3.01 ± 0.089 kcal/mol | 2.83 ± 0.18 kcal/mol | 2.71 ± 0.085 kcal/mol
SAGGSAGGSAGRAEIPITFNGKKVEVEVEPDPDNGHPIITIKFGNKPVVINPDGQIRPFPSAGGSAGGSAGG [r11_732_TrROS] | -0.0926 ± 0.47 kcal/mol | 0.0302 ± 0.19 kcal/mol | -0.0507 ± 0.11 kcal/mol
SAGGSAGGMTTVTYDPSTGVTTVLTPKTDPTSDETSVVTTTVTLPTSPSGGGGTATTTTTTTASSAGGSAGG [r6_952_JUSTAS] | 1.39 ± 0.024 kcal/mol | 1.18 ± 0.045 kcal/mol | 0.74 ± 0.051 kcal/mol
SAGGSAPPEWRTIMIPMKPDDVDNAIEELRNELPPGRNINIHLQDPEPGRYFMITIRGNKIEIHFMSAGGSA [r15_257_TrROS] | 2.12 ± 0.21 kcal/mol | 2.29 ± 0.17 kcal/mol | 2.1 ± 0.17 kcal/mol
SAGGSAGGSAGKIELTNIQVWPGPNGRPWISMTISFPDGPVTIWIPFDNPDNIEIEIKPGSAGGSAGGSAGG [r17_64_TrROS] | 3.02 ± 0.043 kcal/mol | 2.82 ± 0.084 kcal/mol | 2.63 ± 0.1 kcal/mol
SKKTVTIELYVPNMTPEQLRALLEALGYKVKKEEFDEDRGVVRLTVELPEDGTTITITIVRPPLPPGEKPSA [r9_1090_TrROS_Hall] | 2.54 ± 0.046 kcal/mol | 2.59 ± 0.12 kcal/mol | 2.25 ± 0.12 kcal/mol
SAGGIKEFADTLQDHGGTVTVEPVNNGSLKVSIQHRDPEDGRMYRMEIEIPPENNKLEIDDWEPYPNSAGGS [r16_613_TrROS] | 0.31 ± 0.27 kcal/mol | 0.0987 ± 0.21 kcal/mol | 0.071 ± 0.15 kcal/mol
SAGGSKDLEIKITKIKEWDPPNGKQTIRIPIEVYDPENGKPRPPAEELADELQKRFPGMPIKVEPVSAGGSA [r2_27_TrROS] | 0.863 ± 0.028 kcal/mol | 0.441 ± 0.14 kcal/mol | -0.416 ± 0.29 kcal/mol
SMKVYVKVLPPEYAVAYIYTDKKYEIPIPTTDLEEARAQIEEIVNEIEKRTGVKAEVEITEVAPDTKIPLSA [r9_786_JUSTAS] | 0.928 ± 0.13 kcal/mol | 0.74 ± 0.22 kcal/mol | 0.182 ± 0.15 kcal/mol
SAGGSAGGSGLEILEEREAVFPLHGLVVKREVVVRSPDGVPLVFVEVEAHPELLPLVERLFERSAGGSAGGS [r12_457_TrMRF] | -0.0155 ± 0.13 kcal/mol | 0.138 ± 0.099 kcal/mol | 0.212 ± 0.054 kcal/mol
STITIEVETPEELEKALVEAEKLVEKGKDVKIEIFVRNENGETLKLTFDIKQLPDGIPVLEIEVEPVPPPSA [r9_1023_TrMRF] | 3.1 ± 0.041 kcal/mol | 2.74 ± 0.13 kcal/mol | 1.89 ± 0.1 kcal/mol
SAGKKPKVIEKTITIKVYDKKTKKEYEIKIKVRVVKKDGKVIEEFSEEEAKELAKKLAEELKKNKNIKPSAG [r5_426_TrROS_Hall] | 2.44 ± 0.04 kcal/mol | 2.22 ± 0.14 kcal/mol | 1.81 ± 0.097 kcal/mol
SAGGSAGGSVEKLKKALEKLGIKVENVKIEVKTNKNGKKTVTIYVNGKKLSKEEIKKALKEIKSAGGSAGGS [r12_175_TrROS_Hall] | 4.46 ± 0.33 kcal/mol | 4.24 ± 0.44 kcal/mol | 2.99 ± 0.23 kcal/mol

Sequence | folding stability dG unfold [1] | folding stability dG unfold [2] | folding stability dG unfold [3]
SAGGTIYIFIPGLTAEEILKFIAEEFPGHENVTIFWPKGYYVKITVDNGNIKIDKVQPMRPMPPGDPSAGGS [r8_225_TrROS] | 3.31 ± 0.026 kcal/mol | 2.99 ± 0.084 kcal/mol | 2.52 ± 0.073 kcal/mol
SAGGSAGGSAGGMTLRIRVRNKDGKVLEIEVEVDEDKTPEEVARELAKKLNVEKVEIFPSAGGSAGGSAGGS [r10_400_TrROS_Hall] | 2.32 ± 0.038 kcal/mol | 2.28 ± 0.13 kcal/mol | 2.2 ± 0.07 kcal/mol
SAGGSAGGSMPVKVITTISRETVPLPNGDPGARYTVTTTVTTDSTVVSTTTTTFSSEAELAAASAGGSAGGS [r12_461_JUSTAS] | 0.854 ± 0.12 kcal/mol | 0.894 ± 0.084 kcal/mol | 1.08 ± 0.035 kcal/mol
SAGGSAGGSMTFRVEVFNKKTGKVETIEVEGSLDELKALAPPGALVKIEVDGKTITIPAEELKSAGGSAGGS [r20_36_TrROS_Hall] | 1.75 ± 0.059 kcal/mol | 1.74 ± 0.057 kcal/mol | 1.67 ± 0.021 kcal/mol
SAGGSIPADTVATLTLPDRDLAVRVELVDGTPRYLVTGPDGTPVGTLTPEEFAAFVAALPADARLDLRSAGG [r13_657_JUSTAS] | 1.32 ± 0.081 kcal/mol | 1.15 ± 0.068 kcal/mol | 0.7 ± 0.032 kcal/mol
SAGMKITLPKGVKSIKVEEVNGKKVIYIEVDGKIFVYDLKTGKLYIYDKKTGEKKEITIKKGDTITLKSAGG [r19_138_TrROS_Hall] | 1.79 ± 0.067 kcal/mol | 1.55 ± 0.07 kcal/mol | 1.03 ± 0.028 kcal/mol
SAGGSAGGSKKKTVEEILKELKKKKNKIIKIKYKDGSTYYINIKTGKIIKLKNIKNVKIEILPSAGGSAGGS [r20_44_TrROS_Hall] | 4.44 ± 0.1 kcal/mol | 3.55 ± 0.32 kcal/mol | 2.73 ± 0.14 kcal/mol
SAMTPEEIKERLAAELPPSAEVMTTETFKEGDVEYVKITLRTPDSLSEATYNLETGEIERTPIGLDVPQSAG [r14_737_JUSTAS] | 0.923 ± 0.13 kcal/mol | 0.792 ± 0.15 kcal/mol | 0.423 ± 0.13 kcal/mol
SAGTVTIGIWIPADDIEQIKELIRSIAEEHGWEVKVDKIEPNPDGQYFVTVTVENPENGKEIKITIWIPSAG [r5_41_TrROS] | 3.39 ± 0.044 kcal/mol | 3.25 ± 0.11 kcal/mol | 2.98 ± 0.056 kcal/mol
SAGGSANNWKPIGEFPFRHPDGWRVTVPIWRDPGEGNIKINVKYQGPNGPPSKQMKEWAKKLLDEISAGGSA [r15_529_TrROS] | 0.654 ± 0.32 kcal/mol | 0.866 ± 0.31 kcal/mol | 0.936 ± 0.15 kcal/mol
SAGGSAGGSAGKIRDPNGNPFQIKDVEVEPPGPGDPYISIEYPDNGEEFTLPPEDAEDLFSAGGSAGGSAGG [r17_517_TrROS] | 2.13 ± 0.052 kcal/mol | 1.64 ± 0.27 kcal/mol | 0.95 ± 0.038 kcal/mol
SAGGSAGGSPGKPKTIPVEMVFFNPEDGYFFEMRSEIYVPPDGNLQIDISIELYPVPPNAPLISAGGSAGGS [r12_116_TrROS] | 1.46 ± 0.039 kcal/mol | 1.84 ± 0.18 kcal/mol | 2.33 ± 0.2 kcal/mol
SAGGSAGGSAGGLPEDDNYVRVKITFTIMMMEFDPKNGKMQMFPISIEIEIYIPPGAELSAGGSAGGSAGGS [r10_133_TrROS] | 3.6 ± 0.25 kcal/mol | 3.26 ± 0.22 kcal/mol | 2.36 ± 0.12 kcal/mol
SAGGSAGGSAGSPVSNPEGGTITNTETLPDGKTIVNTQTIDPSKPKTTTSTTVLDPNGNAVSAGGSAGGSAG [r3_433_JUSTAS] | 1.55 ± 0.045 kcal/mol | 1.27 ± 0.13 kcal/mol | 0.894 ± 0.053 kcal/mol
SAGGMPIILLEEKKLPNGEPVYRITLLERDPNDGSWRPIEEDELKTKEEAEERAKAIAEKRGVELLKSAGGS [r16_512_JUSTAS] | 1.34 ± 0.036 kcal/mol | 1.43 ± 0.053 kcal/mol | 1.57 ± 0.026 kcal/mol
SAGGMMKLELEIEKEDGKKYKIEVEYNKEEPVLKIKIYDKNGKKIKEIEIKAKSLEEALEAAKKLLKSAGGS [r16_158_TrROS_Hall] | 3.99 ± 0.2 kcal/mol | 3.68 ± 0.22 kcal/mol | 3.3 ± 0.14 kcal/mol
SAMEVIELEFPSVEELEAALKEKFNVEVEKLPDGTKRIKVEVDGELVLIEITDDKVRIRIISKEELEKLSAG [r14_402_TrROS_Hall] | 1.53 ± 0.041 kcal/mol | 2.42 ± 0.13 kcal/mol | 3.05 ± 0.095 kcal/mol
SMPEILDVREDPDAPGALTFRVKLPDGEATVVIPYDPETGTFTAVRYYPDGEEVREFDSFEDALEAILEDSA [r9_366_TrMRF] | 1.46 ± 0.051 kcal/mol | 1.49 ± 0.053 kcal/mol | 1.45 ± 0.019 kcal/mol
SAGGSMLIKIKLPKNNPLRDKIVEKLKKSPYVKDVKVKRLKELPNYEIFLIEVDGDPKVADEIKKLASAGGS [r16_394_TrMRF] | 3.08 ± 0.045 kcal/mol | 2.83 ± 0.15 kcal/mol | 2.16 ± 0.09 kcal/mol
SAGGTVTLTLELTVKVKRKDGKTETKKVTLTITVEVKEGETVYTPDGKKIKPGKSAEELAKELLKKLSAGGS [r16_440_TrROS_Hall] | 1.28 ± 0.12 kcal/mol | 1.27 ± 0.32 kcal/mol | 1.17 ± 0.089 kcal/mol
GLEVKVDITVDPVGGGTRIPVTVSVPGRPIAQATADVDPETGVVNLDLGAESEEERKAALEKLKEAGIKLGS [r1_455_JUSTAS] | 1.42 ± 0.054 kcal/mol | 1.35 ± 0.083 kcal/mol | 1.1 ± 0.049 kcal/mol
